This note sets out measurements from patent US20160215065A1 (Genentech, published 2016).

In experiment [1] the target is T1, mouse active NSP4 (mA) (mouse), Q14B24.
T1 chain: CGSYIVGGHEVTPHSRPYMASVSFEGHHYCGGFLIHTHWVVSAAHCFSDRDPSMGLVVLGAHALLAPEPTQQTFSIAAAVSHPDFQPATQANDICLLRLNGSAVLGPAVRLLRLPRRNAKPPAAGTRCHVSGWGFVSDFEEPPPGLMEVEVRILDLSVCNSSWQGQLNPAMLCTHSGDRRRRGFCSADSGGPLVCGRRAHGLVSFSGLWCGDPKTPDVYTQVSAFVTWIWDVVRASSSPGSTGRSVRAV
Kind of experiment: BLI affinity class in summary table. The conditions noted are these: remark: other sources report otherwise.

The target of experiment [2] is T2, mouse zymogen NSP4 (mZ) (mouse), Q14B24.
T2 chain: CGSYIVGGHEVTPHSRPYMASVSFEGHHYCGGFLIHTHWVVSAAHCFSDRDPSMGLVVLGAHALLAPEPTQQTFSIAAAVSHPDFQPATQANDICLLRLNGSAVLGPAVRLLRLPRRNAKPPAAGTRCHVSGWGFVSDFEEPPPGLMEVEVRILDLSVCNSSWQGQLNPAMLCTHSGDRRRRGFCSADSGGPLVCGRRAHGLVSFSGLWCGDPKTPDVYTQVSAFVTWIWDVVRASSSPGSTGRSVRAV
Kind of experiment: BLI affinity class in summary table. Particulars: remark: other sources report otherwise.

For experiment [3], the target named is T1, mouse active NSP4 (mA) (mouse), Q14B24. Kind of experiment: competition phage ELISA (phage IC50); soluble mA-NSP4 against plate-coated NSP4. Particulars: remark: other sources report otherwise.
Experiment [4] deals with T3, recombinant mouse NSP4 (form not stated) (mouse, UniProt Q14B24 40-284, limits assumed).
T3 construct: also called mNSP4; soluble mNSP4
T3 sequence (looked up): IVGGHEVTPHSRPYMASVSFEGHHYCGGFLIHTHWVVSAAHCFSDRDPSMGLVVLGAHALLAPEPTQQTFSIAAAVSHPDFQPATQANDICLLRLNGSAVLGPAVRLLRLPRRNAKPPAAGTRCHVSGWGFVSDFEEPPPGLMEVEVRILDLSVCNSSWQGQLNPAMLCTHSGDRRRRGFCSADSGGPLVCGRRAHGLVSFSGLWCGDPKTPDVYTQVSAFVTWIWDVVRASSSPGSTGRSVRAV
In words: ratio of phage IC50 values against the parental clone 51.WT.

Experiment [5] concerns the target T3, recombinant mouse NSP4 (form not stated). In words: phage competition binding assay (phage IC50); soluble mNSP4 competitor.

“And” between values parts separate entries of the source, which are not always exact repeats. Equal entries are not always repeated.

B1: anti-NSP4 antibody 5-2 (antibody, V domains shown)
VH: EVQLVESGGGLVQPGGSLRLSCAASGFTFSNTYISWVRQAPGKGLEWVGFIYPANGATYYADSVKGRFTISADTSKNTAYLQMNSLRAEDTAVYYCARRYRLSFDYWGQGTLVTVSS
VL: DIQMTQSPSSLSASVGDRVTITCRASQDVSTAVAWYQQKPGKAPKLLIYSASFLYSGVPSRFSGSGSGTDFTLTISSLQPEDFATYYCQQSYTTPPTFGQGTKVEIKR
As for B1, the Kd in experiment [1] was below 50 nM; in experiment [2], > 50 nM and < 1000 nM. Moreover, the IC50 in experiment [3] was determined as 25 nM.

B2: affinity matured anti-NSP4 antibody clone 51.59 (Fab, V domains shown)
VH: EVQLVESGGGLVQPGGSLRLSCAASGFTFSGSGIHWVRQAPGKGLEWVAWISPTGGNTYYADSVKGRFTISADTSKNTAYLQMNSLRAEDTAVYYCARVFFHNVAFDYWGQGTLVTVSS
VL: DIQMTQSPSSLSASVGDRVTITCRASQDVSTAVAWYQQKPGKAPKLLIYSASFLYSGVPSRFSGSGSGTDFTLTISSLQPEDFATYYCQQNFSSPPTFGQGTKVEIKR
Consider B2, for which the “Affinity improvement to mNSP4” value in experiment [4] is 196 fold. For the same molecule, in experiment [5], the IC50 worked out at 0.095 nM.
